Measurements: the nanobody polyreactivity screen of Harvey et al. (2022)

Experiment: yeast display, Sf9 membrane polyspecificity reagent, FACS + sequencing; frameworks hold sequencing errors
Procedure, shortened: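 Polyreactivity labels are assigned by the sorting gate from which each nanobody was recovered. The gates were low and high (top ~1%), set on anti-HA fluorescence for expression and streptavidin fluorescence for reagent binding. Before sorting, galactose-induced (36–48 hours) yeast display cells were stained for 1 hour at 4 °C with 10% biotinylated, detergent-solubilized Sf9 membrane reagent.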

Sequence	polyreactivity (PSR sort gate)
QVQLVESGGGLVQAGGSLSISCAASGRNFGYYTMGWYRQAPGKERELGAAITSGGRTNYADSVKGRFTISRDNAKNTVYLQMNSLKPEDTAVYYCNARRDSTRRGTWYEYWGQGTQVTVSS	high polyreactivity
QVQLVESGGGLVQAGGSLSLICAASGGIIRYKAMGWYRQAPGKERELVAAISSGGNTNYADSVKGRFTISRDNAKNTVNLQMNSLKPEDTAVYYSAKAAPWRVYYHKAYGYDYWGQGPQVTVSS	high polyreactivity
QVQLVESGGGLVQAGGSLSLICAASGRTSVVNAMGWYRKAPGKERELVAAITSGGSTHYADSVKGRFTISRDNAKNTVYLQMNSLKPEDTAVYYCTKRGHPARLGYYYWGQGTQVTVSS	low polyreactivity
QVQLVESGGGLVQAGGSLSLICAASGSTITYNAMGWYRQAPGKETELVAAIDWDGDTTYYADSVKGRFTISRDNAKNTVYLQMNSLKPEDTAVYYCAAEFYSLGKAIYEYWGQGTQVTVSS	high polyreactivity
QVQLVESGGGLVQAGGSLSLRCAASGRIFTVYAMVWYRPAPGKEMELVAAISKRDGSTSYADSVKGRFTISRDNAKNTVYLQMNSLKPEDTAVYYCNARNHVQVLFRRDYWGQGTQVTVSS	low polyreactivity
QVQLVESGGGLVQAGGSLSLSCAASGATFVRNAMGWYRQAPGKERELVAVISFRGGRTYYADSVKGRFTISRDNAKNTVYLQMNSLNPEDTAVYYCAKDRVASGVISSVDSWGQGTLVTVSS	low polyreactivity
QVQLVESGGGLVQAGGSLSLSCAASGFNFGVNTRGWDRQAPGKERELVAAITGSGSSTDYADSVKGRFTISRDNAKNPVYLQMHRLKPEDTAVYYCAASYYSNYPTYLRYYDWGQGTQVTVSS	high polyreactivity
QVQLVESGGGLVQAGGSLSLSCAASGIFSRYAMGWYRQAPGKERELVAAISSGGSTYYAESVKGRFTISRDNAKNTVYLQMNSLKPEDTAVYYCSVKQRDKFAGGRNDYWGQGTQVTVSS	high polyreactivity
QVQLVESGGGLVQAGGSLSLSCAASGIIFGLYTMGWYRQAPGKERELVAAISDSGGRTYYADSVKGRFTISRDNAKNTVYLQMNSLKPEETAVYYCAAEFWYVWEYNYWGQCTQVTVSS	high polyreactivity
QVQLVESGGGLVQAGGSLSLSCAASGINFWRYAMGWYRPAPGKERELVAGITSRGGSTYYADSVKGRFTISRDNAKNTVYLQMNSLKPEDTAVYYCNADWYGQLWWGVDYWGQGTQVTVSS	high polyreactivity
QVQLVESGGGLVQAGGSLSLSCAASGLILRSYAMGWYRQAPWKERELVAAISGSGGRTYYADSVKGRFTISRDNAKNTVYLLMNSLKPEDTAVYYCAAGWTYRQNGYWGQGTQVTVSS	high polyreactivity
QVQLVESGGGLVQAGGSLSLSCAASGLTFPKYAMGWYRQAPGKERELVDRISYSGASTYYADSVKGRFTISRDNAKNTVYLQMNSLKPEDTAVYYCAARIYRVYYVDFAPYYYWGQGTQVTVSS	high polyreactivity
QVQLVESGGGLVQAGGSLSLSCAASGLTFYNYAMGWYRQAPGTERELVAAISRSGRTYYADSVKGRFTISRDNAKNTVDLQMNSLKPEDTAVYYCAAGHGGDPGSGYWGQGTEVTVSS	high polyreactivity
QVQLVESGGGLVQAGGSLSLSCAASGNIFSYNAMGWYRQAPGKERELVAAITWAGSTYADSVKGRFTISRDNAKNTVFLQRNSLKPEDTAVYYCNAANDSGYDYWGQGTQVTVSS	low polyreactivity
QVQLVESGGGLVQAGGSLSLSCAASGRIFYVNTMGWYRQAPGKERELVATISSAASTNYADSVKGRFTISRDNAKNTVYLQMNSLKPEDTAVYYCNAAFYKEYYYWGQGTQVTVSS	low polyreactivity
QVQLVESGGGLVQAGGSLSLSCAASGRITCGYAMGWYRQAPGKERELVAVINFNGGRTYYADSVKGRFTISRDNAKNTVYLQMNSLKPEDTAVYYCAADSGYEYDYWGQGTQVTVSS	low polyreactivity

Sequence	polyreactivity (PSR sort gate)
QVQLVESGGGLVQAGGSLSLSCAASGRITRFNAMGWYRQAPGKERELVAAITRGASTYYADSVKGRFTISRDNAKNSVYLQMNRLKQEDTAVYYCAAAPRYSWTSVARYDYWGQGTQVTVSS	high polyreactivity
QVQLVESGGGLVQAGGSLSLSCAASGRIYYYAMGWYRQAPGKERELVAAITGRGGSTYYADSVKGRFTISRDNAKNRVYLQMNSLKPEDTAVYYCARAGCPRHDWGQGTQVTVSS	high polyreactivity
QVQLVESGGGLVQAGGSLSLSCAASGRLFKIDAMGWYRQAPGKERELVATISSGGRTNYADSVKGRFTISRDNAKNSVYLQMNSLKPEVTAVYYCNAGARVLYETESFDYWGQGIQVTVSS	low polyreactivity
QVQLVESGGGLVQAGGSLSLSCAASGRTFAPYAMGWYRQAPGKEREFVAGITWSSSSTYADSVKGRFTISRDNAKITVYFQMNSLKPEDPAVYYCAASHAKGGNRHYYWGQGTQVTVSS	high polyreactivity
QVQLVESGGGLVQAGGSLSLSCAASGRTFVPYAMGWYRQAPGKERELVADITDGDGSTYADSVKGRFTISRDNAKNTVYLQMNSLKPEYTAVYYCAAQSRRLVTRWPVTFGYWGQGTQVTVSS	low polyreactivity
QVQLVESGGGLVQAGGSLSLSCAASGRTFWYKDMGWYRQAPGKERELVAVISSGAITFYADSVKGRFTISRDNAKNTVYLQMNSLNPEDTAVYYCAARSYLSLIDYWGQGTLVTVSS	high polyreactivity
QVQLVESGGGLVQAGGSLSLSCAASGSIFRGNAMGWYRQAPGKERELVAANSYSSGTTYYADSVKGRFTISRDNAKNTVYFQMNSLKPEDTAVYYCATRYYRGYVRGTHHVGGYYYRGQGTQVTVSS	low polyreactivity
QVQLVESGGGLVQAGGSLSLSCAASGSIFRSYAMGWYRQAPGKERELVAAITNGGSTYYADSVKGRFTISRDNAKNTVYLQMNSLKPEDTAVYYCAAARYTYWFYLVKKTGYYWGQGTQVTVSS	high polyreactivity
QVQLVESGGGLVQAGGSLSLSCAASGSIFSYYDMGWYIQAPGKERELVAGISRGGSTNYADSVKGRFTISRDNAKNTVYLQMNSLKPEDPAVYYCNADYIFWLTLFDYWGQGTQVTVSS	low polyreactivity
QVQLVESGGGLVQAGGSLSLSCAASGSILGYYAMGWYRQAPGKERELVAAISGRGGSTYYADSVKGRFTISRDNAKNPVYLQMNSLKPEDTAVYYCAKRSVWRGWGQGTQVTVSS	high polyreactivity
QVQLVESGGGLVQAGGSLSLSCAASGSILYFNAMGWYRQAPGKERELVAAISRSGGSTYYADSVKGRFTISRDNAKNTVYIQMNSLKPEDTAVYSCAASYTVYYWGQGTQVTVTS	high polyreactivity
QVQLVESGGGLVQAGGSLSLSCAASGSISYRYAMGWYRQAPGKERELVAAITSGGRTYYADSVKGRFTISRDNAKYTVYLQMNSLKPEDTAVYYCAKSKPVGPYYYWGQGTQVTVSS	high polyreactivity
QVQLVESGGGLVQAGGSLSLSCAASGSLFRPNAMGWYRQAPGKERELVAAITWSGDSTYYADSVKGRFTISRDNAKNTVYLQMNSLKPEATAVYYCAADFTYQGSSANDYWGQGTQVTVSS	low polyreactivity
QVQLVESGGGLVQAGGSLSLSCAASGSNFNVYVMGWYRQAPGKERELVAAITYRGASTYYADSVKGRFTFSRDNAKNTVYLQMNSLKPEDTAVYYCAARYGYRSVYRSYNSRPYDYWGQGTQVTVSS	high polyreactivity
QVQLVESGGGLVQAGGSLSLSCAASGSTFAYYAMGGYRQAPGKERELVAGITWTGGSTYYADSVKGRFTISRDNAKNTVYLQMNSLKPEDTAVYYCAVTYPYGYEYDHWGQGTQVTVSS	low polyreactivity
QVQLVESGGGLVQAGGSLSLSCAASGSTFTEYAMGWDRQAPGKERELVAGISSDGSTKYADSVKGRFTISRDNAMNTVYLQMNSLKTEDTAVYYCYIVQSYAKYDYWGQGTQVTVSS	low polyreactivity
